# Experimental data from the nanobody polyreactivity screen of Harvey et al. (2022).
# Assay: yeast display, Sf9 membrane polyspecificity reagent, FACS + sequencing; frameworks hold sequencing errors
# How it was run: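 Nanobodies from a synthetic yeast display library (Saccharomyces cerevisiae BJ5465), induced 36–48 hours with galactose, were stained 1 hour at 4 °C with 10% biotinylated, detergent-solubilized Sf9 membrane reagent, enriched on streptavidin microbeads, then FACS-sorted. Anti-HA (expression) and streptavidin (reagent binding) fluorescence set low and high (top ~1%) gates. Polyreactivity labels come from the gate of origin. Genes were colony-PCR amplified, MiSeq 2 × 250 sequenced and filtered by CDR length.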
row,Sequence,polyreactivity (PSR sort gate)
1,QVQLVESGGGLVQAGGSLRLICPASGSIFYYYAMGWYRQAPGKERELVAAISYSDDDTYYADSVKGRFTISRDNAKNTVYLQMNSLKPEDTAVYYCAAEFTIAWSYTMDYWVQGTQVTVSS,high polyreactivity
2,QVQLVESGGGLVQAGGSLRLICSASGRTFLYNSMGWYRQAPGKERELVAAIRWSGGTTYYADSVKGRFTISRDNAKYNVYLQMNSLKPEDTAVYYCAARWGPYYGGVRYGYWGQGTQVTVSS,high polyreactivity
3,QVQLVESGGGLVQAGGSLRLIFAASGSIFNRYTMGWYRQAPGKERELVADISKSGTRTYYADSVKGRFTISRDNAKNTVYLQMNSLKPEDTAVYYCAKSSVAVYQTRYDYWGQGTQVTVSS,high polyreactivity
4,QVQLVESGGGLVQAGGSLRLISAASGFIFRYNAMGWYRQAPGKESELVATISSGGGNTYYADSVKGRFTISRDNAKNTVYLQMNSLKPEDTAVYYCAARRYYGVYYAFYYWGQGTQVTVSS,high polyreactivity
5,QVQLVESGGGLVQAGGSLRLISAASGITFDYYAIGWSRQAPGKERELVAAITNDGRTYYADSVKGRFTISRDNAKNTVYLQMNSLKPEDTAVYYCARLTFREYDYWGQGTQVTVSS,low polyreactivity
6,QVQLVESGGGLVQAGGSLRLISPASRFTFRYYAMGWYRQAPGKERELVAAISRGGTTNYADSVKGRFTISRDNAKNTVYLQMNSLKPEDTAVYYCATTRYDYWGQGTQVTVSS,high polyreactivity
7,QVQLVESGGGLVQAGGSLRLNCAASGLIFSNNAMGWYRQAHRKERDLVAAITSSGSRTYYADSVKGRFTISRDNAQITVYLQMNSLKPEDTAVYYCAAYEVPYQRRYGYWGQGTQVTVSS,high polyreactivity
8,QVQLVESGGGLVQAGGSLRLNCAASGRIFVGNTMGWDRQAPGKERELVAAITVRGGSTYYADSVKGRFTISRDNAKNTVYLQMNSLKPEDTAVYYCAARRRIFPPRFGYWGQGTQVTVSS,high polyreactivity
9,QVQLVESGGGLVQAGGSLRLRCAASGFTFRYYALAWYRPAPGKERELVAAISGSGGSTYYADSVKGRFTISRDNAKNTVYLQMNSLKPEDTAVYYCNALSARSRLQSDYWGQGTQVTVSS,high polyreactivity
10,QVQLVESGGGLVQAGGSLRLRCAASGFTFTAYAMGWYRQAPGKERELVAAITWRDGITYYADSVKGRFTISRDNAKNTVYLQMNSLKPEDTADYYCAASWSTEYYWGQGTQVTVSS,high polyreactivity
11,QVQLVESGGGLVQAGGSLRLRCAASGFTIGYNVMGLYRQAPGKERELVATISWNGARTYYADSVKGRFTISRDNAKNTVYLQMNSLKPEDTAVYYCAARRYYRGEYDYWGQGTQVTVSS,low polyreactivity
12,QVQLVESGGGLVQAGGSLRLRCAASGFTLLWNSMGWYRQAPGKEREFVAVISSGGSTNYADSVKGRFTISRDNAKNTVYLQMNSLKPEDTAVYYCATRRPSSSSAAAWFYYWGQGTQVTVSS,low polyreactivity
13,QVQLVESGGGLVQAGGSLRLRCAASGGTFNVYAMGWYRQAPGKERELVARITWNGGRTSYADSVKGRFTISRDNAKNTVYLQMNSLKPEDTAVYFCAAETRYKRIYPYGRATEDYWGQGTQVTVSS,high polyreactivity
14,QVQLVESGGGLVQAGGSLRLRCAASGIIFSYYAMGLSRQAPGKERELFAAISSSGSTNYADSVKGRFTISRDNAKNTVYLQMNSLKPEDTAVYYCNAGYGRRVYVYSFKLRYNYWGQGTQVTVSS,high polyreactivity
15,QVQLVESGGGLVQAGGSLRLRCAASGITFRNYAMGWYRQAPGKEMEFVATISRRAGSTYYADSVKGRFTISRDNAKNTVYLQMNRLKPEDTAVYYCAVRPSYVYFLGARYDYWGQGTQVTVSS,high polyreactivity
16,QVQLVESGGGLVQAGGSLRLRCAASGITFSRNAMGAYRQAPGKERELVATITSGGSTNYADSVKGRFTISRDNAKNTVYLQMNSLKPEDTAVYYCNADWNTFISGRSYDYWGQGTQVTVSS,low polyreactivity
17,QVQLVESGGGLVQAGGSLRLRCAASGLTFTGNAMGWYRQAPGKEREFVAAIRWSAGSTYYADSVKARFTISRDNAKNTVYLHMNSLKPEDTAVYYCKAALNVSGHYTNDSWGQGTQVTLSS,low polyreactivity
18,QVQLVESGGGLVQAGGSLRLRCAASGLTFVDNAMGWYSQAPGKERELVAAITKRGGRTYYADSVKGRFTISRDNAKNTVYLQMNSLKPEDPAVYYCARDSGNDSSRRLDYWGQGTQVTVSS,low polyreactivity
19,QVQLVESGGGLVQAGGSLRLRCAASGNIFYGNAMGWYRQAPGKERELVAGITSGGSTNYADSVKGRFTISRDNAKNTVYLQMNSLKPEDTAVYYCNATSSGSIFGYDYWGQGTQVTVSS,low polyreactivity
20,QVQLVESGGGLVQAGGSLRLRCAASGRIFGFYAMGWYRQAPGKERELVAAITSSAGRTRYADSVKGRFTISRDNAKNTVYLQMNSLKPEDTAVYYCAARTVGRKAGFDYWGQGTQVTVSS,high polyreactivity
21,QVQLVESGGGLVQAGGSLRLRCAASGRIFRLYAMGWYRQAPGKERELVAAIRSSGGSTYADSVKGRFTISRDNAKNTVYLHMNSLKPEDTAVYYCAARWGRLPEQYRYDYWGQGTQVTVSS,high polyreactivity
22,QVQLVESGGGLVQAGGSLRLRCAASGRIFRYYAMGWYRQAPGKESELVAAITSSGGSTFYADSVKARFTISRDNAKNTVYLQMNSLKPEDTAVYYCAAPRGTRKTYNSWGQGTQVTVSS,high polyreactivity

row,Sequence,polyreactivity (PSR sort gate)
1,QVQLVESGGGLVQAGGSLRLRCAASGRIFVPYVMGWYRQAPGKERELVASISDSDTSTYYADSVKGRFTISRDNAKNTVYLQMNSLKPEDTAVYYCNVDYWGQGTQVTVSS,low polyreactivity
2,QVQLVESGGGLVQAGGSLRLRCAASGRIYCDNATGRYRQAPGKESELVAPISDSVVITYYADSVKGRFTISRDNAKNTLYVQMNSLKPEDTAVYYCAADKRGTVYLSSFWMDYWGQGTQVTVSS,low polyreactivity
3,QVQLVESGGGLVQAGGSLRLRCAASGRTFDTYAMGWYRQAPWKERELVASITYRGGSTYYADSVKGRFTITRDNAKNTVYLQMNSLKPEDTAVYYCNAKVKRNKRWRGYWGQGTQVTVSS,high polyreactivity
4,QVQLVESGGGLVQAGGSLRLRCAASGRTFGGNAMGWYRQAPGKERELVAAISFSGGSTYYADSVKGRFTISRDNAKNTVYLQMNSLKPEDTAVYYCAARYYWSVYADQGDYWGQGTQVTVSS,low polyreactivity
5,QVQLVESGGGLVQAGGSLRLRCAASGRTFYGYDMGWYRQAPGKERELVATISSGGSTNYADSVKGRFTFSRDNAKNTVYLQMNSLKPEDTAVYYCNADRYVDPRTYFGYDYCGQGTQVTVSS,low polyreactivity
6,QVQLVESGGGLVQAGGSLRLRCAASGSIFESNAMGWYRQAPGKETEFVAAIDQNDGSTYYADSVKGRFTISRDNAKNTVYLQMNSLKPDDTAVYYCAARCYVYRLTWGDYWGQGTQVTVSS,low polyreactivity
7,QVQLVESGGGLVQAGGSLRLRCAASGSIFIGYAMGWYRQAPGKERELVAAITSGSITNYAYSVKGRFTISRDNAKNTVYLLMNSLKPEDTAVYYCNADVNFIDDDYWGQGTQVTVSS,low polyreactivity
8,QVQLVESGGGLVQAGGSLRLRCAASGSIFNSYAMGWYRPAPGKERELVAAISIRGTRTYYADSVKGRFTISRDNAKNTVSLQMNSLKPEDSAVSYCAADASSTEGMDFWGQGTQLTVSS,high polyreactivity
9,QVQLVESGGGLVQAGGSLRLRCAASGSIFVSNTMGWYRQAPGKEREMVASIRETAGSTNYADSVKGRFTISRDYAKNTVYLQMNSLKPEDTEVYYCAARYSPTRYHYGYWGQGTQVTVSS,low polyreactivity
10,QVQLVESGGGLVQAGGSLRLRCAASGSSFIWNAMGWYRQAPGKERELVAAISSGGSTYYADSVKGRFTISRDNAKNTVDLQMNSQKPPDTAVYYCAAEYVNNVWEQSYAVYSTDDYWGQGTQVTVSS,low polyreactivity
11,QVQLVESGGGLVQAGGSLRLRCAASGSTFAVYAMGWYRQAPGKERELVATIRWNGGSTYYADSVKGRFTISRDNAKNTVYLQMNSLKPEDTAVYYCAAPPIRPNLYDYWGQGTQVTVSS,high polyreactivity
12,QVQLVESGGGLVQAGGSLRLRCAASGSTFAYYAMGWYRQAPGKERELVAAITASATNTYYADSVKGRFTISRDHAKNTVYLQMNSLKPEDTAVYYCAADDVDVEHQASWDDYDSWGQGTQVTVSS,low polyreactivity
13,QVQLVESGGGLVQAGGSLRLRCAASGSTFLKNAKGWYRQAPGKERELVAAISYSTTRSYYADSVKGRFTISRDNAKNTVYLQMNSLKPEDTAVYYCAADGYWWTYTRYDYWGQGTQVTVSS,low polyreactivity
14,QVQLVESGGGLVQAGGSLRLRCAASGSTFPYNAMGWYRQAPGKERELVAAITSAVGTNYADSVKGRVTISRDNAKNTVYLQMNSLKREDTAVYYCAARYIETPLTVLSLMDYWGQGTQVTVSS,low polyreactivity
15,QVQLVESGGGLVQAGGSLRLRCAASGSTFSRYTMGWYRQAPGKERELVAAISKSGGSTYYADSVKGRFTISRDNAKNTVYLQMNSLKPEDTAVYYCAALVRAGTSLDFDYWGQGTQVTVSS,high polyreactivity
16,QVQLVESGGGLVQAGGSLRLRCAASGSTFSSYAMGWYRQAPGKERELVAAISSRGGRTYYADSVKARFTISRDNAKNTVYLQMNRLIPEDTAVYYCAADWGVRDEYYYWGQGTQVSVSS,high polyreactivity
17,QVQLVESGGGLVQAGGSLRLRCAASGSTFSTNAMGWYSQAPGKERELVASITRSGGSTYYADSVKGRFTISRDNAKNTFYLQMTSLKPEDTAVYYCNADGYYDYDYGFWGQGTQVTVSS,low polyreactivity
18,QVQLVESGGGLVQAGGSLRLRCAASGSTFVYNGMGWYRQAPGKERELVATISSTGSTNYADSVKGRFTISRDNAKNTVFLQMNSLKPEDTAVYYCATEYITYLAYDYWGQGTQVTVSS,low polyreactivity
19,QVQLVESGGGLVQAGGSLRLRCAASGSTLSNYAMGWYRQAPGKERELVAAITWSTGSTYYADSVKGRFTISRDNAKNSVYLQMNSLKPEDTAVYYCNAGSQYLLVGLYDYWGQGTQVTVSS,low polyreactivity
20,QVQLVESGGGLVQAGGSLRLRCAASGTNSVQYAMGGYRQAPGKERELVAAIDRSGGSTSYADSVKGRFTISRDNAKNTVYLQMNSLKQEDTAVYYCNADPFRSTYSYDYWGQGTQVTVSS,low polyreactivity
21,QVQLVESGGGLVQAGGSLRLRCAASGYIFRYYAMGWYRQAPGKEREFVAAISRNGGSTYYADSVKGRFTISRDKAKNTVYLQMNSLKPEDTAVYNCNVVGHDDKYDYWGQGTQVTVSS,high polyreactivity
